Test results as given in paper PMC10976474.

Experiments:
[1] = target: T1, MBP-PhoB (Synechococcus sp. WH7803) (UniProt A0ACE0B1Y2); assay: EMSA; settings: 10 mM Tris-HCl pH 8, 50 mM KCl, 2 mM MgCl2, 5% glycerol, 0.05 mg/mL BSA, 1 mM DTT, 3 mM spermidine (described as 2x binding buffer); 25 ng DNA, 30 min at 23 C …
T1 sequence: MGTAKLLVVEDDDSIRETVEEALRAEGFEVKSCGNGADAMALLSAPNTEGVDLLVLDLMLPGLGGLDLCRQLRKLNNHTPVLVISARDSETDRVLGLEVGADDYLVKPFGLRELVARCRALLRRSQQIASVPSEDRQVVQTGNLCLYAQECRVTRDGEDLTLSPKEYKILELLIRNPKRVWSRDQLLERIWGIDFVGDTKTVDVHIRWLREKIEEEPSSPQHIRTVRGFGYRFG

[2] = target: T1, MBP-PhoB (Synechococcus sp. WH7803); assay: competition; settings: 10 mM Tris-HCl pH 8, 50 mM KCl, 2 mM MgCl2, 5% glycerol, 0.05 mg/mL BSA, 1 mM DTT, 3 mM spermidine (described as 2x binding buffer); 25 ng DNA, 30 min at 23 C …

Sequence	binding [1]	binding [2]
GTAACTTCCGACACAAATTCTTGATAGCGTTCAAAGTTTACTTTAGACATATTAGATAATAAAAGAACTGAATTTGTCAATTCGCTTTTGGCGAGTTGAAAGGTCTTCAAAAGAATCCGCTAGATCTTCCTGTTCGACAAGAGCATCAGCAGATGTCTCATCATCAACATTATACAGCTTCATCTTTGCTCTGTCAATACCAACTGTAAAACGGCGATGCATCGTAGGATCATTATATCGATTCTTCAATTGCTTCACCATAATACGACTGGATTGTTCT (double strand) [S-PM2d136 (mazG) promoter]	no binding	no binding
TACACTATCTAGGAAACTCATAAATTACCTCTTAGAAAAAACTTAATAGAGAAACTTTTTTCTCATAATCCCAACCAATACATTCTAGCACATTTTTCAATGGTTCCAAGAAAGACTTCTCAAACTGAGTCTGATAGTCAATATACTTATCAACGTTAAACTCCTTGGGAATGTCACTGAAGAATGATATGCAGTTCTCCTGAATTGGGTTTGGTGTTCTCAAG (double strand) [S-PM2d134 (uvsX) promoter]	binds	binds
AGGGGTACTGGATCATTTCTGAAGTTGAAGAAATTGATGGTTTGGAGTTTGGGGACCCCGATTGTATGTTAAAATATCCATATGCAGTTGAACAAGGGGTCCTCGTCCCATGGCCACCATATTCAACAGAAAAAAAGATCATTGTAAGATCTTCCGAGATCAGTGTCATGGTTGATCCAGATGCTCCTCGCCTTGCAGATTATGCCAAATTGAAATCAGAAGAGACCTAATGAAATTTTACACCAGCGTACAACAAGCAGGTA (double strand) [S-PM2d133 (gp43) promoter (full-length fragment)]	binds	
AGTTCTTCCCGAGGATTTGTTCGATGAATTCTGAACCAGTAACATCACTTTATCTCTCATTTAACCAAATCAAGTATATTCTTGATGTTATGTGGGGAACCGATCCAGTTACAGCAAAACTATTTGCAAACTCTCACGGAGTTGATGATACCGAACTGGAACGTTATCTTTCCTCTCGTTTAACTGATGGTGATATAACTAAAGTAGATTATACAATTCTTGGAGAAAAATGATTAATGTCAAACAAGAAGATAACGGCAGCTTCAC (double strand) [FAM-S-PM2d004 promoter]	binds	
CAGCAAGAGCGACTTCAATTTCGAAGTTATTATTGTCATGTTTGATTAAATTGTAGGGCGGGTAATTTTTATTGTGATGTGTCATCGAATCCAATCGATGAAATACATCATCCAGACCTACAAAGTGGGGGGAGTAAATATCCCAAGTGAATTTAGTCATTGCTTTCTCCTTTATTTAAGCGAGTTTGAATTAGGATCTCA (double strand) [S-PM2d130 (hsp20) promoter]	no binding	
TACACTATCTAGGAAACTCATAAATTACCTCTTAGAAAAAACTTAATAGAGAAACTTTTTTCTCATAATCCCAACCAATACATTCTAGCACATTTTTCAATGGTTCCAAGAAAGACTTCTCAAACTGAGTCTGATAGTCAATATACTTATCAACGTTAAACTCCTTGGGAATGTCACTGAAGAATGATATGCAGTTCTCCTGAATTGGGTTTGGTGTTCTCAAG (double strand) [FAM-S-PM2d134 promoter]	binds	
AGTTCTTCCCGAGGATTTGTTCGATGAATTCTGAACCAGTAACATCACTTTATCTCTCATTTAACCAAATCAAGTATATTCTTGATGTTATGTGGGGAACCGATCCAGTTACAGCAAAACTATTTGCAAACTCTCACGGAGTTGATGATACCGAACTGGAACGTTATCTTTCCTCTCGTTTAACTGATGGTGATATAACTAAAGTAGATTATACAATTCTTGGAGAAAAATGATTAATGTCAAACAAGAAGATAACGGCAGCTTCAC (double strand) [S-PM2d004 promoter (full-length fragment)]	binds	binds
